In paper PMC11189558, “Mutations found in cancer patients compromise DNA binding of the winged helix protein STK19”:

Experiments:
Assay in all cases: EMSA; 20 mM HEPES pH 7.4, 100 mM NaCl, 1 mM MgCl2, 1 mg/ml BSA, 2 mM DTT, 5% glycerol; 30 min on ice; native 5% PAGE in 1X TBE
Conditions in all cases: protein: recombinant; tags: GST cleaved; GPLGS left at N-terminus; blunt
STK19 K186E = STK19 K186E (human, UniProt P49842 31-254, K186E)
STK19 R215E/R216E = STK19 R215E/R216E (human, UniProt P49842 31-254, R215E;R216E)
STK19 R200E/K201E/K203E = STK19 R200E/K201E/K203E (human, UniProt P49842 31-254, R200E;K201E;K203E)

Measured: binding result

Chain of STK19 R215E/R216E (P49842 31-254 R215E/R216E): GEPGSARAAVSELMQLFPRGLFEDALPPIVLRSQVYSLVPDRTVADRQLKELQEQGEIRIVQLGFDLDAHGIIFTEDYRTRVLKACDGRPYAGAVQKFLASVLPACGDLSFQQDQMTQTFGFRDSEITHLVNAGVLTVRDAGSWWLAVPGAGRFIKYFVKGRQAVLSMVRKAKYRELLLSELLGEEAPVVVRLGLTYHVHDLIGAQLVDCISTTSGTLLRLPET
Chain of STK19 K186E (P49842 31-254 K186E): as the sequence (P49842 31-254 R215E/R216E) above, with K156E, E185R, E186R counted along it
Chain of STK19 R200E/K201E/K203E (P49842 31-254 R200E/K201E/K203E): as the sequence (P49842 31-254 R215E/R216E) above, with R170E, K171E, K173E, E185R, E186R counted along it

B1: 59 bp dsDNA (dsDNA)
DNA 1: GAGCTGCCGAATTCTACCAGTGCCTTGCTAGGACATCTTTGCCCACCTGCAGGTTCACC
DNA 2: GGTGAACCTGCAGGTGGGCAAAGATGTCCTAGCAAGGCACTGGTAGAATTCGGCAGCTC
no binding: all assays above
